Results: patent publication US10947296B2, “Fusion protein Slit2D2(C386S)-HSA and use thereof in treatment of fibrotic diseases” (SUZHOU THINKING POWER BIOTECHNOLOGY CO., LTD., priority 2016, dated 2021)

Tested on: pulmonary fibrosis model
Test: Efficacy on bleomycin-induced pulmonary fibrosis model
Assay type: in vivo
Parameters: body weight of the animals (Mean ± SEM) / Weight of the left lung (Mean ± SEM) / Volume of the left lung (Mean ± SEM): unit not given here
Conditions: for Volume of the left lung (Mean ± SEM) / Weight of the left lung (Mean ± SEM): after formalin perfusion, day 14
Experimental: Animals were anesthetized by inhaling isoflurane. After confirmation of anesthesia, the animals were sterilized, then the neck skin was cut, the muscles were bluntly separated to expose the trachea, and bleomycin (dosage: 3 mg/kg, volume: 1.0 mL/kg) was directly injected between the tracheal rings. After the operation, the animals were placed in a 37° C. electric blanket to keep warm until the animals were completely awakened. After confirming that they were able to eat and drink freely, the animals were returned to the cage for normal feeding.
In this experiment, there were four groups, i.e., model group (experimental group-1, […]), PFD group (experimental group-2, n=6), Slit2D2(C386S)-HSA-1 mg/kg (experimental group-3, n=6), and Slit2D2(C386S)-HSA-5 mg/kg (experimental group-4, n=6).
In this experiment, the positive control drug (PFD) was given to rats by gavage twice a day, which was started on the day of modeling, and administered continuously for 14 days. The test compound (Slit2D2(C386S)-HSA) was given intravenously once every other day, which was started on the day of modeling, and a total of seven doses were administered (as shown in table 6).
Physiological observation of the experimental animals: changes in body weight of the animals were measured (body weight was measured once a day before administration); and the death rate of animals during the test period was monitored.
Animals were euthanized 24 hours after the last administration on the 14th day of modeling. After confirming the death of the animals, the left lung was fixed by intrapulmonary infusion of formalin, and the volume and weight of the left lung after perfusion were measured for relevant examination of the pulmonary pathology.
General pathological examination: After the perfusion with an equal amount of formalin in the left lung, the wet weight of left lung after perfusion was weighed/recorded with a micro-balance; and the volume of left lung after perfusion was measured and recorded using a micro-measuring cup.
Pathological examination of lung tissue: The whole lung was dehydrated. Lung paraffin sections were made with paraffin blocks. […] HE staining and Masson Trichrome staining were performed according to pathological staining SOP, and whole section scanning was performed using a Digital Pathscope slice scanner. Pathological analysis and scoring of changes in damage and inflammation of terminal bronchioles and accompanying small pulmonary artery at the periphery of the lesions (as shown in Tables 7 and 8 and FIG. 7) were performed using the HE-stained sections. Lesion area calculation, lesion pathology analysis and scoring were performed with the Masson Trichrome-stained sections (as shown in Table 9 and FIG. 8).
The mean±sd or mean±sem was calculated using the graphpad prism software, and the significant difference test was performed using t-test, one-way ANOVA and two-way ANOVA test. A significant difference between the two groups was considered at p<0.05.

Slit2D2(C386S)-HSA: Fusion protein of the Slit2 D2 domain with C386S mutation linked to human serum albumin; amino acid sequence SEQ ID NO: 3
inhibiting pulmonary fibrosis, compared with positive compound (PFD) (5 mg/kg dose group, iv Q2D): superior to the positive compound (PFD) | Volume of the left lung (Mean ± SEM) (1mpk (BID)): 1.27 ± 0.02 | Weight of the left lung (Mean ± SEM) (1mpk (BID)): 1.20 ± 0.03 | body weight of the animals (Mean ± SEM) (1mpk Q2D iv, Day 1): 273.8 ± 3.1 | body weight of the animals (Mean ± SEM) (1mpk Q2D iv, Day 3): 255.2 ± 3.2 | body weight of the animals (Mean ± SEM) (1mpk Q2D iv, Day 5): 262.8 ± 4.7 | body weight of the animals (Mean ± SEM) (1mpk Q2D iv, Day 7): 276.7 ± 5.4 | body weight of the animals (Mean ± SEM) (1mpk Q2D iv, Day 9): 290.7 ± 6.3 | body weight of the animals (Mean ± SEM) (1mpk Q2D iv, Day 11): 302.7 ± 6.9 | body weight of the animals (Mean ± SEM) (1mpk Q2D iv, Day 13): 310.3 ± 7.8 | Volume of the left lung (Mean ± SEM) (5mpk (BID)): 1.32 ± 0.03 | Weight of the left lung (Mean ± SEM) (5mpk (BID)): 1.31 ± 0.07 | body weight of the animals (Mean ± SEM) (5mpk Q2D iv, Day 1): 272.7 ± 1.8 | body weight of the animals (Mean ± SEM) (5mpk Q2D iv, Day 3): 251.8 ± 2.3 | body weight of the animals (Mean ± SEM) (5mpk Q2D iv, Day 5): 245.0 ± 5.0 | body weight of the animals (Mean ± SEM) (5mpk Q2D iv, Day 7): 258.3 ± 4.4 | body weight of the animals (Mean ± SEM) (5mpk Q2D iv, Day 9): 272.5 ± 5.0 | body weight of the animals (Mean ± SEM) (5mpk Q2D iv, Day 11): 284.3 ± 5.9 | body weight of the animals (Mean ± SEM) (5mpk Q2D iv, Day 13): 292.2 ± 5.6 | inhibition on the progression of pulmonary fibrosis (intravenous, every other day for 2 weeks, 1 and 5 mg/kg): significant inhibition on the progression of pulmonary fibrosis, with a dose-dependent trend
